According to patent US20170210813A1 (Regeneron, published 2017):
Residue numbers refer to the chain shown, from its start. Names and notes keep the numbering of the source. One block for each binder: values may come before it.

How the values were obtained:
[1] = target: full length human PDGFR-beta on HEK293 cells (human, UniProt P09619 33-1106); assay: cell-based or functional assay
[2] = target: T1, hPDGFRb.mmh (human, UniProt P09619 33-531); assay: SPR, mAb captured, 25 C
T1 construct: Soluble monomeric construct; also called soluble human PDGFR-beta.mmh
Description: (§1) Antibodies, expressed as either mouse Fc (prefix H1M; H2M) or human Fc (prefix H4H), were captured on their respective anti-Fc sensor surfaces (Mab capture format). […] Kinetic association (kₐ) and dissociation (kd) rate constants were determined by processing and fitting the data to a 1:1 binding model using Scrubber 2.0 curve fitting software.

[3] = target: T2, Macaca fascicularis PDGFRb.mmh (Macaca fascicularis); assay: SPR, mAb captured, 25 C
T2 construct: Soluble monomeric construct; also called mfPDGFRb.mmh
T2 chain: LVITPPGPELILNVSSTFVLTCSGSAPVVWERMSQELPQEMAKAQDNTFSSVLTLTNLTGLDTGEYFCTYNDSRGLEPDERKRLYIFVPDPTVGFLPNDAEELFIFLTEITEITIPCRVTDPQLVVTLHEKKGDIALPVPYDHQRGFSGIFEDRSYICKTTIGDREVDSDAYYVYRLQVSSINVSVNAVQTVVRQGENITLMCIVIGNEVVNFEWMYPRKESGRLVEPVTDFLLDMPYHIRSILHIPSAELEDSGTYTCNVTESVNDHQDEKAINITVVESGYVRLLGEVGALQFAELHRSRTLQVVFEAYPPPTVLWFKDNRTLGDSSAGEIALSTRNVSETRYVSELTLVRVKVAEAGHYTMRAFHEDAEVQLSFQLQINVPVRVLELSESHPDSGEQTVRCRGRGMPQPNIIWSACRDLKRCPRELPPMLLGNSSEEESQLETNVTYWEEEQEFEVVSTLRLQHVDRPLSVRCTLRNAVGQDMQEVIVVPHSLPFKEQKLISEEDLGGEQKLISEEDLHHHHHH
Description: as §1

[4] = target: T3, human PDGFRb.hFc (human); assay: SPR, mAb captured, 25 C
T3 construct: Soluble dimeric construct with human Fc; also called hPDGFRb.hFc
Description: as §1

[5] = target: T1, hPDGFRb.mmh; assay: SPR, mAb captured, 37 C
Description: as §1

[6] = target: T2, Macaca fascicularis PDGFRb.mmh; assay: SPR, mAb captured, 37 C
Description: as §1

[7] = target: T3, human PDGFRb.hFc; assay: SPR, mAb captured, 37 C
Description: as §1

[8] = target: T1, hPDGFRb.mmh; assay: blocking ELISA, biot-hPDGFRb.mmh to coated PDGF-BB
Description: The equilibrated PDGFR-beta/antibody solutions were added to ligand-coated plates, allowed to incubate for 1 hr, and washed. Levels of bound biot-hPDGFR-beta.mmh were detected using HRP conjugated streptavidin. Data were analyzed using Prism software and IC₅₀ values were calculated as the amount of antibody required to achieve 50% reduction of hPDGFR-beta-mmh bound to ligand. Maximum blocking values were also calculated and reflect the ability of the antibody to block relative to baseline. The absorbance measured at the constant amount of 250 pM biot-hPDGFR-beta-mmh on the dose curve is defined as 0% blocking and the absorbance with no added PDGFR-beta is defined as 100%. The absorbance of the wells containing the highest antibody concentration determined the maximum blocking percent.

Sequence of full length human PDGFR-beta on HEK293 cells (P09619 33-1106 limits assumed): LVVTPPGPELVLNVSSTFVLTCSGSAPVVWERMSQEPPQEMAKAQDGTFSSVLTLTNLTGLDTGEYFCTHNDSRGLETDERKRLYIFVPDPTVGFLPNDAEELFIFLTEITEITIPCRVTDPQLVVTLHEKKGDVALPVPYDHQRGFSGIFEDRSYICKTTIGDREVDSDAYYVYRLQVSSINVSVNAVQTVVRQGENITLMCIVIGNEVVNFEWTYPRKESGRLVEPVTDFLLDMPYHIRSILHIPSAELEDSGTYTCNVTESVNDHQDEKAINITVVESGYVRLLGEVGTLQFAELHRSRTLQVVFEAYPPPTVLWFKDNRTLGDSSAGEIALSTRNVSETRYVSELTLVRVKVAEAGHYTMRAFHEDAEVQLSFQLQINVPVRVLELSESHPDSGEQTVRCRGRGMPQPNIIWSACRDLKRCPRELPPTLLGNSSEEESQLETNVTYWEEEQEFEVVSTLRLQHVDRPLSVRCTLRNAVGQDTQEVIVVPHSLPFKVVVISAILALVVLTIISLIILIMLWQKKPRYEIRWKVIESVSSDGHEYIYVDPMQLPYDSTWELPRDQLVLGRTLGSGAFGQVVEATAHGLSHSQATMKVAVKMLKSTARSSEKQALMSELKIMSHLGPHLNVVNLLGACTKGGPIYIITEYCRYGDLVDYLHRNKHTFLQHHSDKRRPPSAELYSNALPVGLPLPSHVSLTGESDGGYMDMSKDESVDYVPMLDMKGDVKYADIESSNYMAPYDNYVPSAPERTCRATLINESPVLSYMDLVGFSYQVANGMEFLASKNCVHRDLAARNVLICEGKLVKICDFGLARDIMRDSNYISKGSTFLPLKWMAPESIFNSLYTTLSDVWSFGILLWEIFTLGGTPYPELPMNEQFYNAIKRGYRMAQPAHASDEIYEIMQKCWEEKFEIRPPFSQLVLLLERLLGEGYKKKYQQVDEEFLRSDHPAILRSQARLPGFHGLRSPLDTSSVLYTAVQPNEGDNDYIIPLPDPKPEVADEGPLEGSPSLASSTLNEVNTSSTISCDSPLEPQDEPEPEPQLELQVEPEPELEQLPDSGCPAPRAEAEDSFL
T1 sequence (P09619 other isoform, or with tags, fused parts or gaps): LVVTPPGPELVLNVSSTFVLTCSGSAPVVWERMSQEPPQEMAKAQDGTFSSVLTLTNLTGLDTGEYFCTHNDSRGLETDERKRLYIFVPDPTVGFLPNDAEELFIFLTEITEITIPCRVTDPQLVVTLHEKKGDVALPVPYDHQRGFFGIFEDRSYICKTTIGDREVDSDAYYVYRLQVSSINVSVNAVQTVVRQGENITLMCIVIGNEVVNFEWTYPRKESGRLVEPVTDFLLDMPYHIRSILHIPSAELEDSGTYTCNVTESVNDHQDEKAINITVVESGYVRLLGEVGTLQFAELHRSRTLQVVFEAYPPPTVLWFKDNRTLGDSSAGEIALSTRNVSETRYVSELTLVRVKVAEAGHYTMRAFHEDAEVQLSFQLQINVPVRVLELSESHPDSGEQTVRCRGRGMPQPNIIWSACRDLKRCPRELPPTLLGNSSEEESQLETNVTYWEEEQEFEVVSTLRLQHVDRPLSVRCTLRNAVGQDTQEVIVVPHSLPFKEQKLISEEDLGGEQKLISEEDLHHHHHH

IC50, blocking PDGF-BB (250 pM) activation, SRE-luciferase [1]: 4.5e-10 M
IC50, blocking PDGF-DD (400 pM) activation, SRE-luciferase [1]: 5.8e-10 M
Kd [2]: 3.68 nM
koff [2]: 0.00104 s⁻¹
kon [2]: 281000 M⁻¹ s⁻¹
t1/2 [2]: 11 min
Kd [3]: 6.39 nM
koff [3]: 0.00117 s⁻¹
kon [3]: 182000 M⁻¹ s⁻¹
t1/2 [3]: 10 min
Kd [4]: 1.17 nM
koff [4]: 0.00026 s⁻¹
kon [4]: 222000 M⁻¹ s⁻¹
t1/2 [4]: 44 min
Kd [5]: 13.8 nM
koff [5]: 0.00624 s⁻¹
kon [5]: 452000 M⁻¹ s⁻¹
t1/2 [5]: 2 min
Kd [6]: 31.6 nM
koff [6]: 0.00512 s⁻¹
kon [6]: 162000 M⁻¹ s⁻¹
t1/2 [6]: 2 min
Kd [7]: 3.1 nM
koff [7]: 0.000793 s⁻¹
kon [7]: 250000 M⁻¹ s⁻¹
t1/2 [7]: 15 min
% Maximum Blocking [8]: 84%
IC50 [8]: 0.18 nM
B1: H4H3096S (antibody, human IgG4, V domains shown)
VH: EVQLVQSGGSLVQPGGSLRLSCTASGFTFSSYWMSWVRQAPGKGLEWVANIQQDESEKYYVDSVKGRFSISRDNAKKSLYLQMNSLRAEDTAVYFCARDLVPPRQGDYYHYFGMDVWGQGTLVTVSS
VL: AIRMTQSPSTLSASVGDRVTITCRASQSISDWLAWYQQKPGKAPNLLIYKASSLESGVPSRFSGSGSGTEFTLTISGLQPDDFATYYCQQYNSYSRTFGQGTKLEIKR
notes: human IgG4 Fc (H4H prefix)

IC50, blocking PDGF-BB (250 pM) activation, SRE-luciferase [1]: 5.8e-10 M
IC50, blocking PDGF-DD (400 pM) activation, SRE-luciferase [1]: 5.1e-10 M
Kd [2]: 3.19 nM
koff [2]: 0.000784 s⁻¹
kon [2]: 246000 M⁻¹ s⁻¹
t1/2 [2]: 15 min
Kd [3]: 5.2 nM
koff [3]: 0.000932 s⁻¹
kon [3]: 180000 M⁻¹ s⁻¹
t1/2 [3]: 12 min
Kd [4]: 0.91 nM
koff [4]: 0.000225 s⁻¹
kon [4]: 247000 M⁻¹ s⁻¹
t1/2 [4]: 51 min
Kd [5]: 11.3 nM
koff [5]: 0.00354 s⁻¹
kon [5]: 314000 M⁻¹ s⁻¹
t1/2 [5]: 3 min
Kd [6]: 14.4 nM
koff [6]: 0.00416 s⁻¹
kon [6]: 289000 M⁻¹ s⁻¹
t1/2 [6]: 3 min
Kd [7]: 3 nM
koff [7]: 0.000824 s⁻¹
kon [7]: 280000 M⁻¹ s⁻¹
t1/2 [7]: 14 min
% Maximum Blocking [8]: 86%
IC50 [8]: 0.16 nM
B2: H4H3105S (antibody, human IgG4, V domains shown)
VH: B1 VH with E1Q, Q6E, S21A, S56N, A88V, L122T
VL: DIQLTQSPSTLSASVGDRVTITCRASQSISDWLAWYQQKPGKAPNLLIYKASTLESGVPSRFSGSGSGTEFTLTISSLQPDDFATYYCQQYNSYSRTFGQGTKVEIK
notes: human IgG4 Fc (H4H prefix)

IC50, blocking PDGF-BB (250 pM) activation, SRE-luciferase [1]: 5e-10 M
IC50, blocking PDGF-DD (400 pM) activation, SRE-luciferase [1]: 3.3e-10 M
Kd [2]: 1.61 nM
koff [2]: 0.000688 s⁻¹
kon [2]: 428000 M⁻¹ s⁻¹
t1/2 [2]: 17 min
Kd [3]: 0.909 nM
koff [3]: 0.000714 s⁻¹
kon [3]: 786000 M⁻¹ s⁻¹
t1/2 [3]: 16 min
Kd [4]: 0.304 nM
koff [4]: 0.000146 s⁻¹
kon [4]: 480000 M⁻¹ s⁻¹
t1/2 [4]: 79 min
Kd [5]: 3.37 nM
koff [5]: 0.0028 s⁻¹
kon [5]: 833000 M⁻¹ s⁻¹
t1/2 [5]: 4 min
Kd [6]: 4.05 nM
koff [6]: 0.00299 s⁻¹
kon [6]: 740000 M⁻¹ s⁻¹
t1/2 [6]: 4 min
Kd [7]: 0.606 nM
koff [7]: 0.000567 s⁻¹
kon [7]: 936000 M⁻¹ s⁻¹
t1/2 [7]: 20 min
% Maximum Blocking [8]: 89%
IC50 [8]: 0.38 nM
B3: H4H3104S (antibody, human IgG4, V domains shown)
VH: QVQLVESGGGLVQPGGSLRLSCAAAGFTFSHYWMSWVRQAPGKGLEWVATIKKDGSERYYVDSVKGRFTISRDNARNSMYLEMNSLRTEDTAIYYCARDIVTPNTDYYFGMDVWGQGTTVTVSS
VL: B2 VL with I29F, S30N, D31N, A34S, N45K, K50M, E70D, S76N, Y91S, Q100H
notes: human IgG4 Fc (H4H prefix)

IC50, blocking PDGF-BB (250 pM) activation, SRE-luciferase [1]: 4.1e-09 M
IC50, blocking PDGF-DD (400 pM) activation, SRE-luciferase [1]: 4.4e-09 M
Kd [2]: 0.89 nM
koff [2]: 0.000455 s⁻¹
kon [2]: 509000 M⁻¹ s⁻¹
t1/2 [2]: 25 min
Kd [3]: 1.73 nM
koff [3]: 0.000489 s⁻¹
kon [3]: 283000 M⁻¹ s⁻¹
t1/2 [3]: 24 min
Kd [4]: 0.39 nM
koff [4]: 0.000118 s⁻¹
kon [4]: 300000 M⁻¹ s⁻¹
t1/2 [4]: 98 min
Kd [5]: 1.42 nM
koff [5]: 0.00147 s⁻¹
kon [5]: 1.04e+06 M⁻¹ s⁻¹
t1/2 [5]: 8 min
Kd [6]: 2.86 nM
koff [6]: 0.00164 s⁻¹
kon [6]: 574000 M⁻¹ s⁻¹
t1/2 [6]: 7 min
Kd [7]: 0.76 nM
koff [7]: 0.000319 s⁻¹
kon [7]: 420000 M⁻¹ s⁻¹
t1/2 [7]: 36 min
% Maximum Blocking [8]: 30%
B4: H4H3102S (antibody, human IgG4, V domains shown)
VH: EVQLVESGGDLVHPGRSLRLSCVASGFTFDDYTMHWVRQAPGKGLEWVSAISWNGDNINYAGSVKGRFTISRDNAKNSLYLEMNSLRVEDTAFYYCAKGRGFSFGFNYLGQGTMVTVSS
VL: AIRMTQSPSSLSASVGDRVTITCRASQDISNYLAWFQQQPGKAPKSLIYATSSLNSGVPSKFSGSGSGTDFTLTISSLQPEDFATYYCQQYKSYPLTFGGGTKVEIK
notes: human IgG4 Fc (H4H prefix)
